In patent US20150094271A1 (SAMSUNG ELECTRONICS, published 2015):
No end group written: not given here.

B1: HDM2NTD (N-terminal domain of HDM2, amino acids 1 to 125 of NP-002383) (other, human, UniProt Q00987 1-125, looked up)
chain: MCNTNMSVPTDGAVTTSQIPASEQETLVRPKPLLLKLLKSVGAQKDTYTMKEVLFYLGQYIMTKRLYDEKQQHIVYCSNDLLGDLFGVPSFSVKEHRKIYTMIYRNLVVVNQQESSDSGTSVSEN
notes: range 1-125
B2: His6-HDM2NTD (other, human)
chain: HHHHHHMCNTNMSVPTDGAVTTSQIPASEQETLVRPKPLLLKLLKSVGAQKDTYTMKEVLFYLGQYIMTKRLYDEKQQHIVYCSNDLLGDLFGVPSFSVKEHRKIYTMIYRNLVVVNQQESSDSGTSVSEN
notes: range 1-125; Tag placed N-terminally by its name only
B3: GST-p53LZ2 (leucine zipper variant p53LZ2, inventive, tagged with GST) (designed binder)
chain: RMKQLEDKVGELLFSNYWLELEVARLKKLV
modifications: not fully specified (N-terminus); also: parallel homodimer, GST junction linker letters not given here
notes: not shown: GST carrier (pGEX-4T3 vector) and its junction linker
B4: His6-HDMXNTD (other, human)
chain: HHHHHHMTSFSTSAQCSTSDSACRISPGQINQVRPKLPLLKILHAAGAQGEMFTVKEVMHYLGQYIMVKQLYDQQEQHMVYCGGDLLGELLGRQSFSVKDPSPLYDMLRKNLVTLATATTDAAQTLALAQDHSMDIPS
notes: range 1-132; Tag placed N-terminally by its name only
B5: HDMXNTD (N-terminal domain of HDMX, amino acid residues 1 to 132 of NP-001191100) (other, human, UniProt O15151 1-132, looked up)
chain: MTSFSTSAQCSTSDSACRISPGQINQVRPKLPLLKILHAAGAQGEMFTVKEVMHYLGQYIMVKQLYDQQEQHMVYCGGDLLGELLGRQSFSVKDPSPLYDMLRKNLVTLATATTDAAQTLALAQDHSMDIPS
notes: range 1-132; also called HDM4

Legend:
[1] = target: T1, GST (UniProt P08515 1-218 = GST); assay: ELISA, HDM2NTD coated at 20 µg/ml, HRP anti-GST antibody, absorbance at 450 nm
T1 construct: Negative control in the pull-down; also called glutathione S-transferase tag alone (control)
T1 sequence (P08515 whole entry): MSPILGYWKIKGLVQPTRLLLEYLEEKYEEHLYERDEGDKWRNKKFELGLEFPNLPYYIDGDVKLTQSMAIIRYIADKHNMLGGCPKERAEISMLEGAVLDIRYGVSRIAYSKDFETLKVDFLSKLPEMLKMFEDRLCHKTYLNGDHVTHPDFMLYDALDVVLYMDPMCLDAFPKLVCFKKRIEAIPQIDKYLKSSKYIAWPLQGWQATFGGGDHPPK
Description: (§1) HDM2 or HDMX was diluted to a concentration of 20 μg/ml in a coating buffer (pH 9.6; 0.05M carbonate-bicarbonate buffer, pH 9.6 (Sigma-Aldrich)), applied to 96-well plates (Nunc, Maxisorp) and incubated overnight at 4° C. Then, the plates were treated with 300 μl of 3% skim milk w/PBS-T (room temperature, 3 hrs) to block the binding of other proteins. The 96-well plates were washed with 200 μL of PBS-T before each well was treated with serial dilutions of 0, 50, 100, 200, 400, 800, 1200, 1600, 2400, 3200, 4800, and 6400 nM of GST-WT p53, GST-p53LZ1, GST-p53LZ2, GST, pDIQ, and pMI.
(§2) After one hour of incubation, the plates were washed three times with 300 μL of PBS-T, and incubated at room temperature for 1 hr with 100 μL of an HRP conjugated-anti-GST antibody (Abcam, 1:2000). Thereafter, treatment with TMB substrate (Pierce, 100 μL) for 5 min developed a color. A stop solution (Pierce, 100 μL) was added, followed by reading absorbance at 450 nm on microwell reader (Molecular Device, Model: 340PC384).

[2] = target: T1, GST; assay: GST pull-down on glutathione resin, 12% SDS-PAGE of the eluate
[3] = target: B5; assay: ELISA, HDMXNTD coated at 20 µg/ml, HRP anti-GST antibody, absorbance at 450 nm
Description: as §1, §2

[4] = target: T2, full-length HDM2 (human, UniProt Q00987 1-491); assay: ELISA, full-length HDM2 coated at 20 µg/ml, HRP anti-GST antibody, absorbance at 450 nm
T2 construct: mature
Description: as §1, §2

[5] = target: B1; assay: ELISA, HDM2NTD coated at 20 µg/ml, HRP anti-GST antibody, absorbance at 450 nm
Description: as §1, §2

[6] = target: B1; assay: ITC, 0.5 mM p53LZ2 injected into 0.03 mM HDM2NTD, PBS pH 7.4, 18 °C
Description: Meanwhile, the binding of p53LZ2 to HDM2 and HDMX was evaluated by ITC (isothermal titration calorimetry).

[7] = target: B5; assay: ITC (FIG. 6)
[8] = target: B5; assay: ITC, p53LZ2 with HDMXNTD
[9] = target: T1, GST; assay: ELISA, HDMXNTD coated at 20 µg/ml, HRP anti-GST antibody, absorbance at 450 nm
Description: as §1, §2

B1: no binding (tested: 6400 nM) [1].

B2: no binding [2].

B3 was tested, and the “EC50 (read off the curve)” value [3] was ~200 nM, the “EC50 (read off the curve)” value [4] was ~300 nM and the “EC50 (read off the curve)” value [5] was ~200 nM.

In the case of RMKQLEDKVGELLFSNYWLELEVARLKKLV (designed binder) [leucine zipper variant p53LZ2], the “-TΔS” value [6] is reported as 1.48 kcal/mol, the Kd [6] is reported as 17.8 nM and the N [6] is reported as 0.65. The ΔH [6] was -11.8 kcal/mol, the Kd [7] was ~80 nM and the “-TΔS” value [8] was 1.16 kcal/mol. For the same binder, the N [8] was 0.65 and the ΔH [8] was -9.66 kcal/mol.

B4: no binding [2].

B5: no binding (tested: 6400 nM) [9].
